Source: patent publication US20260062487A1 (GRITSTONE BIO, published 2026)

Assays:
CD3 on CD3+ Jurkat cells = molecular target: T1, CD3 on CD3+ Jurkat cells (human, UniProt P07766 23-207); test: flow cytometry, anti IgG PE, CD3+ Jurkat cells
T1 construct: whole, on cells
Experimental: Increasing concentrations of the antibodies were incubated with CD3(+) and CD9(−) Jurkat cells. Binding was determined by flow cytometery using an anti IgG-PE antibody for detection.

[1] = molecular target: HLA-PEPTIDE target A*01:01_… (G2) on cells (human); test: cell-based or functional assay
[2] = molecular target: T2, off-target HLA-A*01:01_… (ICE1) on cells (human); test: IP-MS, NCI-H1703 lysate, Rep1
T2 construct: whole, on cells; also called … (IC1); validated OTLA
Experimental: (§1) 2×10⁸ cells expressing A*01:01/CT83 (NCI-H1703, A375±CT83) were re-suspended in 5 ml lysis buffer (1% CHAPS, 150 mM sodium chloride, 20 mM Tris pH 8) in the presence of phosphatase, and protease inhibitors. The cells were homogenized by sonication, rotated at 4° C. for 1 hr, and spun at 21,000×g for 30 min. to pellet cell debris.
(§2) After immunoprecipitation, the IP beads were isolated using filter plates, then washed to remove non-specific binding using Tris pH 8 buffers with increasing levels of NaCl. The HLA/peptide complex was eluted from the beads using 2N acetic acid. The protein components were removed from the peptides using C18 fractionation. The resultant peptides were taken to dryness by SpeedVac evaporation and stored at −20° C. prior to MS analysis.

[3] = molecular target: T3, HLA-PEPTIDE target A*01:01_… (G2) on cells (human); test: IP-MS, NCI-H1703 lysate, Rep1
T3 construct: whole, on cells; also recovered from cell lysates in the IP-MS experiment; also called G2 pHLA; G2 target
Experimental: as §1, §2

[4] = molecular target: T4, HLA-A*01:01 with … (ERGIC3) from cells (human); test: IP-MS, NCI-H1703 lysate, Rep1
T4 construct: whole, on cells
Experimental: as §1, §2

[5] = molecular target: T5, off-target HLA-A*01:01_… (PTS) on cells (human); test: IP-MS, NCI-H1703 lysate, Rep1
T5 construct: whole, on cells; also called validated OTLA; Control peptide-3
Experimental: as §1, §2

[6] = molecular target: T2, off-target HLA-A*01:01_… (ICE1) on cells; test: IP-MS, NCI-H1703 lysate, Rep2
Experimental: as §1, §2

[7] = molecular target: T3, HLA-PEPTIDE target A*01:01_… (G2) on …; test: IP-MS, NCI-H1703 lysate, Rep2
Experimental: as §1, §2

[8] = molecular target: T4, HLA-A*01:01 with … (ERGIC3) from cells; test: IP-MS, NCI-H1703 lysate, Rep2
Experimental: as §1, §2

[9] = molecular target: T5, off-target HLA-A*01:01_… (PTS) on cells; test: IP-MS, NCI-H1703 lysate, Rep2
Experimental: as §1, §2

[10] = molecular target: T6, A*01:01 with … (V or E 1) on pulsed K562-HLA cells (human); test: flow cytometry, K562-HLA cells pulsed with peptide
T6 construct: whole, on cells

[11] = molecular target: T7, A*01:01 with … (V or E 4) on pulsed K562-HLA cells (human); test: flow cytometry, K562-HLA cells pulsed with peptide
T7 construct: whole, on cells

[12] = molecular target: T8, A*01:01 with … (V or E 6) on pulsed K562-HLA cells (human); test: flow cytometry, K562-HLA cells pulsed with peptide
T8 construct: whole, on cells

[13] = molecular target: T3, HLA-PEPTIDE target A*01:01_… (G2) on …; test: flow cytometry, K562-HLA cells pulsed with peptide
[14] = molecular target: T9, A*01:01 with … (V or E 2) on pulsed K562-HLA cells (human); test: flow cytometry, K562-HLA cells pulsed with peptide
T9 construct: whole, on cells

[15] = molecular target: T10, A*01:01 with … (V or E 3) on pulsed K562-HLA cells (human); test: flow cytometry, K562-HLA cells pulsed with peptide
T10 construct: whole, on cells

[16] = molecular target: T11, A*01:01 with … (V or E 5) on pulsed K562-HLA cells (human); test: flow cytometry, K562-HLA cells pulsed with peptide
T11 construct: whole, on cells

[17] = molecular target: T12, G5 pHLA (HLA-B*35:01 with …) on cells (human); test: flow cytometry, peptide-pulsed cells
T12 construct: whole, on cells
Experimental: (§3) HLA-transduced K562 cells were pulsed the night before with 50 μM of peptide (Genscript) in IDMEM containing 1% FBS in 6 well plates and incubated under standard tissue culture conditions. Cells were harvested, washed in PBS, and stained with eBioscience Fixable Viability Dye eFluor 450 for 15 minutes at room temperature. […] After another wash, PE-conjugated goat anti-human IgG secondary antibody (Jackson ImmunoResearch) was added at 1:100. After incubating at 4° C. for 45 minutes and washing in PBS+2% FBS, cells were resuspended in PBS+2% FBS and analyzed by flow cytometry. Flow cytometric analysis was performed on the Attune NxT Flow Cytometer (ThermoFisher) using the Attune NxT Software. Data was analyzed using FlowJo.

[18] = molecular target: T3, HLA-PEPTIDE target A*01:01_… (G2) on …; test: flow cytometry, anti-IgG PE, peptide-pulsed K562 cells
Experimental: as §3

[19] = molecular target: T3, HLA-PEPTIDE target A*01:01_… (G2) on …; test: flow cytometry, anti IgG PE, A375 9mer cells (1e6 copies of G2 pHLA per cell)
[20] = molecular target: T4, HLA-A*01:01 with … (ERGIC3) from cells; test: IP-MS, K562-A*01:01 lysate (ND: Not detected; W6/32 recovers the peptide)
Experimental: as §1, §2

[21] = molecular target: T3, HLA-PEPTIDE target A*01:01_… (G2) on …; test: flow cytometry, anti IgG PE, A375 9mer cells (1e6 copies per cell)
Experimental: A375 transduced with luciferase alone served as the negative control. […] Binding was determined by flow cytometery using an anti IgG-PE antibody for detection.

[22] = molecular target: T13, off-target HLA-A*01:01_… (KDM7A) on cells (human); test: flow cytometry, anti-IgG PE, K562-A01:01 cells pulsed with peptide (20,000 to 40,000 copies/cell)
T13 construct: whole, on cells; also called validated OTLA; Control peptide-4
Experimental: as §3

[23] = molecular target: T3, HLA-PEPTIDE target A*01:01_… (G2) on …; test: as above
Experimental: as §3

[24] = molecular target: T14, biotinylated refolded A*01:01/b2m with … (alanine at position 9) (human, UniProt P61769 21-119); test: BLI (Octet), biotinylated pHLA on streptavidin sensor
Experimental: (§4) All the assay conditions were prepared in a volume of 200 μL. The pHLA complex biotinylated at the C-terminal AviTag was used to ensure uniform directionality of the protein. […] Using the ForteBio Data Analysis suite, the data was normalized to the association curves followed by background normalization. Curve fitting using global fitting of the sensor data with the Octet™ software using 1:1 kinetic model with errors within 10%, X2below 3, and R2above 0.9 to determine the association and dissociation constants.

[25] = molecular target: biotinylated refolded A*01:01/b2m with … (Ala 2) (human, UniProt P61769 21-119); test: BLI (Octet), biotinylated pHLA on streptavidin sensor, antibody as analyte;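 further: pHLA biotinylated through a C-terminal AviTag for uniform orientation, sensor data background-normalized, rate constants from global 1:1 kinetic fitting in Octet software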
Experimental: as §4

[26] = molecular target: biotinylated refolded A*01:01/b2m with … (alanine at position 8) (human, UniProt P61769 21-119); test: as above
Experimental: as §4

[27] = molecular target: T14, biotinylated refolded A*01:01/b2m with …; test: as above
Experimental: as §4

[28] = molecular target: biotinylated refolded A*01:01/b2m with … (Ala 5) (human, UniProt P61769 21-119); test: as above
Experimental: as §4

[29] = molecular target: biotinylated refolded A*01:01/b2m with […] (Ala 3) (human, UniProt P61769 21-119, biotinylated at the C-terminal AviTag); test: as above
Experimental: as §4

[30] = molecular target: biotinylated refolded A*01:01/b2m with … (Ala 1) (human, UniProt P61769 21-119); test: as above
Experimental: as §4

[31] = molecular target: T15, biotinylated refolded G2-pHLA (A*01:01/b2m/…) (human, biotinylated at the C-terminal AviTag); test: as above
T15 construct: Soluble complex caught on streptavidin sensors or MSD plates; also called G2-peptide A*01:01/b2m complex; WT
Experimental: as §4

[32] = molecular target: biotinylated refolded A*01:01/b2m with … (Ala 4) (human, UniProt P61769 21-119); test: as above
Experimental: as §4

[33] = molecular target: biotinylated refolded A*01:01/b2m with … (Ala 6) (human, UniProt P61769 21-119); test: as above
Experimental: as §4

T1 sequence (P07766 23-207): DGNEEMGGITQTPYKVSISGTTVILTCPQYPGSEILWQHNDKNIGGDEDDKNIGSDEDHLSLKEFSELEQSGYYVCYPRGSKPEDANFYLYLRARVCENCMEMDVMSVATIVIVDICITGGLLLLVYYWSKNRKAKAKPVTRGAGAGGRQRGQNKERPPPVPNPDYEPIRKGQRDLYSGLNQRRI

B1: 41-E07 hOKT3a diabody (Format 41 31E07-CD3 bispecific antibody) (bispecific antibody, human IgG1, kappa)
chain: QVQLVQSGAEVKKPGASVKVSCKASGFTFTNYLIHWVRQAPGQGLEWMGWINPNSGGTNYAQRLQGRVTMTRDTSTSTVYMELSSLRSEDTAVYYCARDYGAGNDYWGQGTLVTVSSGGGGSGGGGSDIQMTQSPSSLSASVGDRVTITCRASQEIRRWLAWYQQKPGKAPKLLIYAASNLQSGVPSRFSGSGSGTDFTLTISSLQPEDFATYYCQQSYSTPYTFGQGTKLEIKGGGGSEPKSSDKTHTCPPCPAPEFEGGPSVFLFPPKPKDTLMISRTPEVTCVVVDVSHEDPEVKFNWYVDGVEVHNAKTKPREEQYNSTYRVVSVLTVLHQDWLNGKEYKCKVSNKALPASIEKTISKAKGQPREPQVYTLPPCREEMTKNQVSLWCLVKGFYPSDIAVEWESNGQPENNYKTTPPVLDSDGSFFLYSKLTVDKSRWQQGNVFSCSVMHEALHNHYTQKSLSLSPGK
heavy: QVQLVQSGAEVKKPGASVKVSCKASGFTFTNYLIHWVRQAPGQGLEWMGWINPNSGGTNYAQRLQGRVTMTRDTSTSTVYMELSSLRSEDTAVYYCARDYGAGNDYWGQGTLVTVSSGGGGSGGGGSDIQMTQSPSSLSASVGDRVTITCRASQEIRRWLAWYQQKPGKAPKLLIYAASNLQSGVPSRFSGSGSGTDFTLTISSLQPEDFATYYCQQSYSTPYTFGQGTKLEIKGGGGSGGGGSQVQLVQSGAEVKKPGASVKVSCKASGYTFTRYTMHWVRQAPGQGLEWMGYINPSRGYTNYNQKFKDRVTLTTDKSSSTAYMELSSLRSEDTAVYYCARYYDDHYSLDYWGQGTLVTVSSASTKGPSVFPLAPSSKSTSGGTAALGCLVKDYFPEPVTVSWNSGALTSGVHTFPAVLQSSGLYSLSSVVTVPSSSLGTQTYICNVNHKPSNTKVDKRVEPKSCDKTHTCPPCPAPEFEGGPSVFLFPPKPKDTLMISRTPEVTCVVVDVSHEDPEVKFNWYVDGVEVHNAKTKPREEQYNSTYRVVSVLTVLHQDWLNGKEYKCKVSNKALPASIEKTISKAKGQPREPQVCTLPPSREEMTKNQVSLSCAVKGFYPSDIAVEWESNGQPENNYKTTPPVLDSDGSFFLVSKLTVDKSRWQQGNVFSCSVMHEALHNRFTQKSLSLSPGK
light: DIQMTQSPSSLSASVGDRVTITCSASSSVSYMNWYQQKPGKAPKRLIYDTSKLASGVPSRFSGSGSGTDFTLTISSLQPEDFATYYCQQWSSNPFTFGQGTKLEIKRTVAAPSVFIFPPSDEQLKSGTASVVCLLNNFYPREAKVQWKVDNALQSGNSQESVTEQDSKDSTYSLSSTLTLSKADYEKHKVYACEVTHQGLSSPVTKSFNRGEC
notes: also called E07-CD3 diabody; 41-31E07-hOKT3a
CD3 on CD3+ Jurkat cells
  EC50 (read off the curve): ~20 nM
[1]
  EC50 (ug/ml), luciferase-cytotoxicity assay with human T cells, A375-CT83 cells: 0.00017 µg/mL
  EC50 (ug/ml), luciferase-cytotoxicity assay with human T cells, NCI-H820 cells: 0.077 µg/mL
  EC50 (ug/ml), luciferase-cytotoxicity assay with human T cells, NCI-H1703 cells: 0.0025 µg/mL
[2]
  copies per cell of the peptide recovered by immunoprecipitation: 33 copies per cell
[3]
  copies per cell of the peptide recovered by immunoprecipitation: 2960 copies per cell
[4]
  copies per cell of the peptide recovered by immunoprecipitation: 34 copies per cell
[5]
  copies per cell of the peptide recovered by immunoprecipitation: 40 copies per cell
[6]
  copies per cell of the peptide recovered by immunoprecipitation: 32 copies per cell
[7]
  copies per cell of the peptide recovered by immunoprecipitation: 2960 copies per cell
[8]
  copies per cell of the peptide recovered by immunoprecipitation: 37 copies per cell
[9]
  copies per cell of the peptide recovered by immunoprecipitation: 42 copies per cell
[10]
  Max Binding: 1880
[11]
  Max Binding: 1560
[12]
  Max Binding: 1400
[13]
  Max Binding: 5560
[14]
  Max Binding: 4680
[15]
  Max Binding: 5680
[16]
  Max Binding: 2630
[17]
  log difference in EC50 against the G2 peptide [..]: 3 log
[18]
  EC50 (read off the curve): ~0.06 µg/mL
[19]
  EC50 (read off the curve): ~3 nM
[20]
  binding result: no binding
[21]
  EC50 (read off the curve): ~2 nM
[22]
  binding result: no binding (tested: 100 ug/ml)
[23]
  EC50 (read off the curve): ~0.3 µg/mL

B2: monovalent Format 3-E07-hOKT3a antibody (bispecific antibody, V domains shown)
VH 1: QVQLVQSGAEVKKPGASVKVSCKASGFTFTNYLIHWVRQAPGQGLEWMGWINPNSGGTNYAQRLQGRVTMTRDTSTSTVYMELSSLRSEDTAVYYCARDYGAGNDYWGQGTLVTVSS
VL 1: DIQMTQSPSSLSASVGDRVTITCRASQEIRRWLAWYQQKPGKAPKLLIYAASNLQSGVPSRFSGSGSGTDFTLTISSLQPEDFATYYCQQSYSTPYTFGQGTKLEIK
VH 2: QVQLVQSGAEVKKPGASVKVSCKASGYTFTRYTMHWVRQAPGQGLEWMGYINPSRGYTNYNQKFKDRVTLTTDKSSSTAYMELSSLRSEDTAVYYCARYYDDHYSLDYWGQGTLVTVSS
VL 2: DIQMTQSPSSLSASVGDRVTITCSASSSVSYMNWYQQKPGKAPKRLIYDTSKLASGVPSRFSGSGSGTDFTLTISSLQPEDFATYYCQQWSSNPFTFGQGTKLEIK
[24]
  binding result: no binding (tested: typically 500-0 nM antibody)
[25]
  Kd: 1.5 nM
  Max Response (nm): 0.24 nm
[26]
  Fold change in affinity (against WT): 6.7 fold
  Kd: 8 nM
  Max Response (nm): 0.24 nm
[27]
  Max Response (nm): 0 nm
[28]
  Fold change in affinity (against WT): 13.3 fold
  Kd: 16 nM
  Max Response (nm): 0.21 nm
[29]
  Fold change in Response (against WT): 1.6 fold
  Fold change in affinity (against WT): 14.2 fold
  Kd: 17 nM
  Max Response (nm): 0.15 nm
[30]
  Fold change in affinity (against WT): 2.5 fold
  Kd: 3 nM
  Max Response (nm): 0.26 nm
[31]
  Kd: 1.2 nM
  Max Response (nm): 0.24 nm
[32]
  Fold change in affinity (against WT): 7.3 fold
  Kd: 8.7 nM
  Max Response (nm): 0.24 nm
[33]
  Fold change in Response (against WT): 2.7 fold
  Fold change in affinity (against WT): 13.3 fold
  Kd: 16 nM
  Max Response (nm): 0.09 nm
